Our source for the Annexin V Positive, Bjab cells, 20 µg/mL SMIP with goat anti-human IgG crosslinking (Annexin V Positive) and Annexin V-PI staining of Ramos cells after 24 hours values is patent US20080279850A1.

For test [1], the target named is T1, CD37 (human) (UniProt P11049).
T1 sequence: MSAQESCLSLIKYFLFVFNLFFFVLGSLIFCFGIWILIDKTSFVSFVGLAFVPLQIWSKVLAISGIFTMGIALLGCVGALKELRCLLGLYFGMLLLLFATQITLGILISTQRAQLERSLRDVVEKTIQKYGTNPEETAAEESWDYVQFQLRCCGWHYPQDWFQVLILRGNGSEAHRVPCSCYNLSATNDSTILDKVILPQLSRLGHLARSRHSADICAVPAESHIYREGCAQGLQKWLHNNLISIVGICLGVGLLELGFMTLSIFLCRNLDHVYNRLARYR

In test [2] the target is T1, CD37 (human). The source holds these as a separate data set.

For the substance “TRU-016 [G28-1 scFv VH11S (SSC-P)H WCH2 WCH3] (Fc fusion)”, in the test with CD37 (human) [1], the Annexin V Positive, Bjab cells, 20 µg/mL SMIP with goat anti-human IgG crosslinking (Annexin V Positive) amounted to 30.6.

With “TRU-016, protein A purified (unfractionated) (Fc fusion)”, the Annexin V-PI staining of Ramos cells after 24 hours with CD37 (human) [2] stood at 32.8%.
